Measurements from article doi:10.1101/2023.02.19.529116 (bioRxiv, 2023).

B1: Smaug 73-278Δ156-196 (Smaug part of the single-chain construct) (domain or fragment, Drosophila, UniProt Q23972 73-278, looked up)
chain: LFCEQVTTVTNLFEKWNDCERTVVMYALLKRLRYPSLKFLQYSIDSNLTQNLGTSQTNLSSVVIDINANNPVYLQNLLNAYKTARKEDILHEVLNMLPLLKPGNEEAKLIYLTLIPVAVKDTMQQIVPTELVQQIFSYLLIHPAITSEDRRSLNIWLRHLEDHIQ
B2: Smaug 70-281 (domain or fragment, Drosophila, UniProt Q23972 70-281, looked up)
chain: SNALFCEQVTTVTNLFEKWNDCERTVVMYALLKRLRYPSLKFLQYSIDSNLTQNLGTSQTNLSSVVIDINANNPVYLQNLLNAYKTFQPCDLLDAMSSSSSDKDSMPCYGSDFQITTSAQCDERKLYARKEDILHEVLNMLPLLKPGNEEAKLIYLTLIPVAVKDTMQQIVPTELVQQIFSYLLIHPAITSEDRRSLNIWLRHLEDHIQAAA
B3: Smoothened 970-1003 synthetic peptide (peptide, UniProt P91682 970-1003, looked up)
peptide: VPSYGEDELQQAMRLLNAASRQRTEAANEDFGGT
B4: His-Hs-SAMD4A 2-156 (domain or fragment, human, UniProt Q9UPU9 2-156, looked up)
chain: MFRDQVGVLAGWFKGWNECEQTVALLSLLKRVSQTQARFLQLCLEHSLADCAELHVLEREANSPGIINQWQQESKDKVISLLLTHLPLLKPGNLDAKVEYMKLLPKILAHSIEHNQHIEESRQLLSYALIHPATSLEDRSALAMWLNHLEDRTST

Assays:
[1] = target: B1; test: crystal structure
crystal structure [2] = target: the molecule itself; test: crystal structure
[3] = target: B3; test: ITC
Smaug 70-281 = target: B2; test: ITC
crystal structure [4] = target: the molecule itself; test: crystal structure; remark: listed apart in the source

Question: Does VPSYGEDELQQAMRLLNAASRQRTEAANEDFGGT (peptide, UniProt P91682 970-1003, looked up) [Smo 970-1003 (Smoothened part of the single-chain construct)] bind [1]?
Answer: binds

Question: Does B1 bind (crystal structure [2])?
Answer: binds

Question: B2 was tested. Which “stoichiometry N” value [3] did it give?
Answer: 1

Question: With B3 as the binder, how does the Kd (Smaug 70-281) read?
Answer: 0.8 µM

Question: With B4 as the binder, how does the “stoichiometry N” value (crystal structure [4]) read?
Answer: 2
